These results are taken from publication PMC12423313, “Protein-based tools for the detection and characterisation of Oropouche virus infection” (EMBO Molecular Medicine, 2025).

The target of experiment [1] is T1, OROV glycoprotein Gc of strain BeAn19991, native, in virus stocks and infected cells (Oropouche virus strain BeAn19991, UniProt A0A0B5CLT0).
T1 construct: On virus particles Gc stands with Gn; also called Gc spike; OROV BeAn19991
In words: immunostaining of cells or tissue. As to conditions: one partner purified.

For experiment [2], the target named is T2, OROV glycoprotein Gc of the 2023-4 epidemic isolate AM0088, native (Oropouche virus isolate AM0088 …, UniProt A0A0B5CLT0, strain).
T2 construct: also called Gc spike; OROV AM0088
In words: immunostaining of cells or tissue. As to conditions: one partner purified.

B1: AlexaFluor568-conjugated OROV SpE8 nanobody (Cys-His8) (VHH)
VHH: QVQLVESGGGFVRAGDSLRLSCAASGRAFSTYAMGWFRQAPGKEREFVAGITLGSRITQYADSVKGRFTISRDNARQTMYLQMNNLQPEDTADYYCAARGQGSPPLRNRWSADDYNYWGQGLQVTVSS
notes: as the VHH of m21; also called OROV Sp Nb E8 CH8
With B1, the binding result in experiment [1] and in experiment [2] was “binds” in each case.
